Measurements from article PMC7261172, “Peptides containing the PCNA interacting motif APIM bind to the β-clamp and inhibit bacterial growth and mutagenesis” (Nucleic Acids Research, 2020).

Legend:
[1] = biological target: E. coli β-clamp, wild type, His-tagged (UniProt P0A988); experiment: SPR; details: peak response at the end of the last (highest) peptide injection, about 1130 s; concentrations not given; parent: est. 140; read off a plot
[2] = biological target: β-clamp (Escherichia coli) (UniProt P0A988); details: cited from earlier work

Row | Substance | response [1] | Kd [2]
1 | Octamer APIM peptide RWLVK (Ac-MDRWLVKW) MDRALVKW (mutated APIM; W to A at peptide position 4 of MDRWLVKW) | 8 RU | 
2 | Pol III alpha C-terminal peptide |  | 2000 nM
